Substrate: O=[N+]([O-])c1cn2c(n1)OC[C@@H](OCc1ccc(OC(F)(F)F)cc1)C2
Test: purified protein
Assay type: biochemical, Nocardia farcinica

B1: (Nocardia farcinica IFM 10152) (protein)
chain: MRMSSTGEYVPSPSEWIGNQVAQYEASDGAEAGEFDGRPLVILTTVGRKTGALRKTPVMRVEHDGRYAVVASQGGAPTHPAWYFNLVADPRAQLRDKDAVLSVVARELAGPERAEWWERAVRAYPTYQEYQDNTRRLIPVLLLEPGR
B1 gave a Km of 21.9 µM, a kcat of 0.33 ± 0.08 s⁻¹ and a kcat/Km of 16000 ± 2000 M⁻¹ s⁻¹.

Source: PMC3267046
